Reference: the RNAGym collection of RNA variant scans (doi:10.7554/elife.80360)

B1: HDV Ribozyme (parent)
chain: GGCCGGCAUGGUCCCAGCCUCCUCGCUGGCGCCGGCUGGGCAACAUUCCGAGGGGACCGUCCCCUCGGUAAUGGCGAAUGGGACCCA

Variants of: B1
Experiment: self-cleavage, relative activity (ratio to wild type); higher = more cleavage; co-transcriptional

For GGCCUGCAUGGUCUCAGCCUCCUCGCUGGCGCCGGCUGGGCAACAUUCCGAGGGGACCGUCCCCUCGGUAAUGGCGAAUGGGACCCA [G5U C14U], which self-cleavage is on record?
The self-cleavage was 0.612.

Which self-cleavage does the source give for GGCCCGCAUGGUCCCAGCCUCCUCGCUGGCGCCGGCUGGGCAACAUUCCGAGGGGACCGUCCCCUCGGUAAUGGCGAAUGCGACCCA [G5C G81C] here?
Its self-cleavage is 0.

With GGCCCGCAUGGUCCCAGCCUCCUCGCUGGCGCCGGCUGGGCAACAUUCCGAGGGGACCGUCCCCUCGGUAAUGGCGAAUGUGACCCA [G5C G81U] as the variant, how does the self-cleavage read?
The self-cleavage was 0.131.

For GGCCUGCAUGGUCCCAGCCUCCUCGCUGGCGCCGGCUGGGCAACAUUCCGCGGGGACCGUCCCCUCGGUAAUGGCGAAUGGGACCCA [G5U A51C], which self-cleavage is on record?
Its self-cleavage is 0.277.

For GGCCUGCAUGGUCCCAGCCUCCUCGCUGGCGCCGGCUGGGCAACAUUCCGAGGGGACGGUCCCCUCGGUAAUGGCGAAUGGGACCCA [G5U C58G], which self-cleavage is on record?
The self-cleavage was 0.262.

With GGCCUGCAUGGUCCCAGCCUCCUCGCUGGCGCCGGCUGGGCAACAUUCCGAGGGGACUGUCCCCUCGGUAAUGGCGAAUGGGACCCA [G5U C58U] as the variant, how does the self-cleavage read?
Its self-cleavage is 0.277.

For GGCCUGCAUGGUCCCAGCCUCCUCGCUGGCGCCGGCUGGGCAACAUUCCGAGGGGACCGUACCCUCGGUAAUGGCGAAUGGGACCCA [G5U C61A], which self-cleavage is on record?
Its self-cleavage is 0.399.

With GGCCUGCAUGGUCCCAGCCUCCUCGCUGGCGCCGGCUGGGCAACAUUCCGAGGGGACCGUGCCCUCGGUAAUGGCGAAUGGGACCCA [G5U C61G] as the variant, how does the self-cleavage read?
The self-cleavage was 0.262.

For GGCCUGCAUGGUCCCAGCCUCCUCGCUGGCGCCGGCUGGGCAACAUUACGAGGGGACCGUCCCCUCGGUAAUGGCGAAUGGGACCCA [G5U C48A], which self-cleavage is on record?
The self-cleavage was 0.712.

With GGCCUGCAUGGUCCCAGCCUCCUCGCUGGCGCCGGCUGGGCAACAUUCCGAGGGGUCCGUCCCCUCGGUAAUGGCGAAUGGGACCCA [G5U A56U] as the variant, how does the self-cleavage read?
Its self-cleavage is 0.431.

For GGCCUGCAUGGUCCCAGCCUCCUCGCUGGCGCCGGCUGGGCAACAUUCCGAGGGGCCCGUCCCCUCGGUAAUGGCGAAUGGGACCCA [G5U A56C], which self-cleavage is on record?
The self-cleavage was 0.831.

Which self-cleavage does the source give for GGCCUGCAUGGUCCCAGCCUCCUCGCUGGCGCCGGAUGGGCAACAUUCCGAGGGGACCGUCCCCUCGGUAAUGGCGAAUGGGACCCA [G5U C36A] here?
The self-cleavage was 0.208.

For GGCCUGCAUGGUCCCAGCCUCCUCGCUGGCGCGGGCUGGGCAACAUUCCGAGGGGACCGUCCCCUCGGUAAUGGCGAAUGGGACCCA [G5U C33G], which self-cleavage is on record?
The self-cleavage was 0.65.

For GGCCCGCAUGGUCCCAGCCUCCUCGCUGGCGCCGGCUGGGCAACAAUCCGAGGGGACCGUCCCCUCGGUAAUGGCGAAUGGGACCCA [G5C U46A], which self-cleavage is on record?
Its self-cleavage is 0.0639.

Which self-cleavage does the source give for GGCCCGCAUGGUCCCAGCCUCCUCGCUGGCGCCGGCUGGGCAACACUCCGAGGGGACCGUCCCCUCGGUAAUGGCGAAUGGGACCCA [G5C U46C] here?
The self-cleavage was 0.26.

With GGCCCGCAUGGUCCCAGCCUCCUCGCUGGCGCCGGCUGGGCAACAGUCCGAGGGGACCGUCCCCUCGGUAAUGGCGAAUGGGACCCA [G5C U46G] as the variant, how does the self-cleavage read?
Its self-cleavage is 0.0573.

With GGCCUGCAUGGUCCCAGCCUCCUCGCUGGCGCCGGCUGGGCAACAUUCCGAGGGGACCGUCCCCUCGGUAAUGGCGAAUGGGAGCCA [G5U C84G] as the variant, how does the self-cleavage read?
Its self-cleavage is 0.262.

With GGCCCGCAUGGUCCCAGCCUCCUCGCUGGCGCCGGCUGGGCAACAUUCCGAGGGGACCGACCCCUCGGUAAUGGCGAAUGGGACCCA [G5C U60A] as the variant, how does the self-cleavage read?
Its self-cleavage is 0.166.

With GGCCCGCAUGGUCCCAGCCUCCUCGCUGGCGCCGGCUGGGCAACAUUCCGAGGGGACCGCCCCCUCGGUAAUGGCGAAUGGGACCCA [G5C U60C] as the variant, how does the self-cleavage read?
The self-cleavage was 0.

With GGCCCGCAUGGUCCCAGCCUCCUCGCUGGCGCCGGCUGGGCAACAUUCCGAGGGGACCUUCCCCUCGGUAAUGGCGAAUGGGACCCA [G5C G59U] as the variant, how does the self-cleavage read?
The self-cleavage was 0.128.

For GGCCUGCAUGGUCCCAGCCUCCUCGCUGGCGCCGGCUGGGCAACAUUCCGAGGGGACCGUCCCCUCGGUAAUGGCGAAUGGGACCCA [G5U], which self-cleavage is on record?
Its self-cleavage is 0.469.

Which self-cleavage does the source give for GGCCUGCAUGGUCCCAGCCUCCUCGCUGGCGCCGGCUGGGCAACAUUCCGAGGGGACCGUCCCCUCGGUAAUGGCGUAUGGGACCCA [G5U A77U] here?
Its self-cleavage is 0.158.

Which self-cleavage does the source give for GGCCUGCAUGGUCCCAGCCUCCUCGCUGGCGCCGGCUGGGCAACAUUCCGAGGGGACCGUCCCCUCGGUAAUGGCGCAUGGGACCCA [G5U A77C] here?
The self-cleavage was 0.192.

With GGCCCGCAUGGUCCCAGCCCCCUCGCUGGCGCCGGCUGGGCAACAUUCCGAGGGGACCGUCCCCUCGGUAAUGGCGAAUGGGACCCA [G5C U20C] as the variant, how does the self-cleavage read?
The self-cleavage was 0.0875.

Which self-cleavage does the source give for GGCCUGCAUGGUCCCAGCCUCCUCGCUGGCGCCGGCUGGGCAACAUUCCGAGGGGACCGUCCCCUGGGUAAUGGCGAAUGGGACCCA [G5U C66G] here?
The self-cleavage was 0.554.

With GGCCCGCAUGGUCCCAGCCUCCUCGCUGGCGCCGGCUGGUCAACAUUCCGAGGGGACCGUCCCCUCGGUAAUGGCGAAUGGGACCCA [G5C G40U] as the variant, how does the self-cleavage read?
The self-cleavage was 0.104.

For GGCCUGCAUGGUCCCAGCCUCCUCGCUGGCGCCGGCUGGGCAACAUUCUGAGGGGACCGUCCCCUCGGUAAUGGCGAAUGGGACCCA [G5U C49U], which self-cleavage is on record?
Its self-cleavage is 0.791.

With GGCCUGCAUGGUCCCAGCCUCCUCGCUGGCGCCGGCUGGGCAACAUUCAGAGGGGACCGUCCCCUCGGUAAUGGCGAAUGGGACCCA [G5U C49A] as the variant, how does the self-cleavage read?
Its self-cleavage is 0.415.

With GGCCCGCAUGGUCCCAGCCUCCUCGCUGGCGCCGGCUGGGCAACAUUCCGAAGGGACCGUCCCCUCGGUAAUGGCGAAUGGGACCCA [G5C G52A] as the variant, how does the self-cleavage read?
Its self-cleavage is 0.252.

Which self-cleavage does the source give for GGCCCGCAUGGUCCCAGCCUCCUCGCUGGCGCCGGCUGGGCAACAUUCCGACGGGACCGUCCCCUCGGUAAUGGCGAAUGGGACCCA [G5C G52C] here?
The self-cleavage was 0.095.

Which self-cleavage does the source give for GGCCUGCAUGGUCCCAGCCUCCUCGCUGGCGCCGGCUGGGCAACAUUCCGAGGGGACCGUCCCCUCGGUAAUGGCGAAUGGGGCCCA [G5U A83G] here?
The self-cleavage was 0.0573.

For GGCCUACAUGGUCCCAGCCUCCUCGCUGGCGCCGGCUGGGCAACAUUCCGAGGGGACCGUCCCCUCGGUAAUGGCGAAUGGGACCCA [G5U G6A], which self-cleavage is on record?
The self-cleavage was 0.208.
